In paper PMC4532887, “Structural and mechanistic insights into phospholipid transfer by Ups1–Mdm35 in mitochondria” (Nature Communications, 2015):
Positions count from the first letter of the chain named.

Experiments:
Conditions in all cases: both partners purified
[1] = biological target: T1, full-length Ups1, N-terminally His6 tagged (from the His6–Ups1–Mdm35 complex) (S. cerevisiae, UniProt Q05776 1-175); experiment: SEC; 10 μM full-length Ups1–Mdm35 complex (WT or mutant Ups1) after incubation with NBD-PA donor liposomes and centrifugation; supernatant on Superdex 200 10/300 GL; 20 mM Tris-HCl pH 7.5, 150 mM NaCl; absorbance at 280 and 460 nm
T1 construct: Ups1, Saccharomyces cerevisiae, full length (175 amino acids); Added to the assays as the purified complex with Mdm35; also called WT Ups1; Ups1WT; source: E. coli SHuffle T7, coexpressed with Mdm35, purified (Ni-NTA, Superdex 200); not shown: His6, N-terminal, kept
T1 sequence (looked up): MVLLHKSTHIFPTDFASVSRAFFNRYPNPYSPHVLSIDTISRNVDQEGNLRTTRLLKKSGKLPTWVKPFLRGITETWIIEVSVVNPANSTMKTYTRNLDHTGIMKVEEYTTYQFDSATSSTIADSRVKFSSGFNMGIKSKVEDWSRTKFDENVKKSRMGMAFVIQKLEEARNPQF

[2] = biological target: T2, full-length His6-Ups1 R25K (S. cerevisiae, UniProt Q05776 1-175, R25K); experiment: as above
T2 construct: Ups1, Saccharomyces cerevisiae, full length (175 amino acids); source: E. coli SHuffle T7, coexpressed with Mdm35, purified (Ni-NTA, Superdex 200)
T2 sequence (looked up): T1 sequence (looked up) with R25K

[3] = biological target: T3, full-length His6-Ups1 ΔLid (lacking the Ω1 loop, residues 62–71) (S. cerevisiae, UniProt Q05776 1-175, ΔLid (lacking residues 62–71)); experiment: as above
T3 construct: Ups1, Saccharomyces cerevisiae, full length (175 amino acids) less residues 62-71; source: E. coli SHuffle T7, coexpressed with Mdm35, purified (Ni-NTA, Superdex 200)
T3 sequence (looked up): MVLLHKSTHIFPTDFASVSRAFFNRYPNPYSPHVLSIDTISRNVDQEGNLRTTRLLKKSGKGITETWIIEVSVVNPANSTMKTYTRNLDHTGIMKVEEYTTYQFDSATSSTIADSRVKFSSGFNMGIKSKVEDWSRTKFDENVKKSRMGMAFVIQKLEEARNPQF

[4] = biological target: T4, full-length His6-Ups1 K61E/K155E (S. cerevisiae, UniProt Q05776 1-175, K61E | K155E); experiment: as above
T4 construct: Ups1, Saccharomyces cerevisiae, full length (175 amino acids); source: E. coli SHuffle T7, coexpressed with Mdm35, purified (Ni-NTA, Superdex 200)
T4 sequence (looked up): T1 sequence (looked up) with K61E, K155E

[5] = biological target: T5, full-length His6-Ups1 R25E (S. cerevisiae, UniProt Q05776 1-175, R25E); experiment: as above
T5 construct: Ups1, Saccharomyces cerevisiae, full length (175 amino acids); source: E. coli SHuffle T7, coexpressed with Mdm35, purified (Ni-NTA, Superdex 200)
T5 sequence (looked up): T1 sequence (looked up) with R25E

[6] = biological target: T6, full-length His6-Ups1 K6E/K128E (S. cerevisiae, UniProt Q05776 1-175, K6E | K128E); experiment: as above
T6 construct: Ups1, Saccharomyces cerevisiae, full length (175 amino acids); source: E. coli SHuffle T7, coexpressed with Mdm35, purified (Ni-NTA, Superdex 200)
T6 sequence (looked up): T1 sequence (looked up) with K6E, K128E

[7] = biological target: T7, full-length His6-Ups1 N24C (S. cerevisiae, UniProt Q05776 1-175, N24C); experiment: cross-linking; disulfide bond between Ups1N24C and Mdm35N25C on separate chains; SDS–PAGE with or without β-mercaptoethanol, CBB staining
T7 construct: Ups1, Saccharomyces cerevisiae, full length (175 amino acids); In the pull-down with GST-Mdm35: the chain set free from Mdm35N25C by pretreatment with DTT; source: E. coli SHuffle T7, coexpressed with Mdm35N25C, purified (Ni-NTA, Superdex 200); not shown: His6, N-terminal, kept
T7 sequence (looked up): T1 sequence (looked up) with N24C

[8] = biological target: T8, Ups1ΔC5 (Ups1 lacking the C-terminal five residues), N-terminally His6 tagged (S. cerevisiae, UniProt Q05776 1-170); experiment: crystal structure; Ups1ΔC5–Mdm35ΔC5 complex without PA, 1.40 Å; sitting drop at 20 °C, 0.2 M ammonium citrate tribasic pH 7.0, 20% polyethylene glycol 3,350
T8 construct: Ups1, Saccharomyces cerevisiae; full length is 175 amino acids, this construct lacks the C-terminal five residues; No removal of the His6 tag is described; the complex with PA was purified again on Ni-NTA before crystallisation; also called His6-Ups1ΔC5; source: E. coli SHuffle T7, coexpressed with Mdm35ΔC5, purified (Ni-NTA, Superdex 200); not shown: His6, N-terminal, kept
T8 sequence (looked up): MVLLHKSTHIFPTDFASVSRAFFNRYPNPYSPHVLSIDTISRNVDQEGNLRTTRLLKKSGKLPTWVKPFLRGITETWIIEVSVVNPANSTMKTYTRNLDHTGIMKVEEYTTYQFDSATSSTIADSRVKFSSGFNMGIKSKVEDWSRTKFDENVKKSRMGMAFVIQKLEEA

B1: full-length Mdm35 (from the His6–Ups1–Mdm35 complex) (natural protein, S. cerevisiae, UniProt O60200 1-86, looked up)
chain: MGNIMSASFAPECTDLKTKYDSCFNEWYSEKFLKGKSVENECSKQWYAYTTCVNAALVKQGIKPALDEAREEAPFENGGKLKEVDK
notes: Mdm35, Saccharomyces cerevisiae, full length (86 residues); The coexpression plasmid encodes GST-Mdm35; also called Mdm35WT; source: E. coli SHuffle T7, coexpressed with His6-Ups1, purified (Ni-NTA, Superdex 200)
B1: binds [1]; binds [2]; binds [3]. B1: binds [4]; binds [5]; binds [6].

B2: full-length Mdm35 N25C (natural protein, S. cerevisiae, UniProt O60200 1-86, looked up)
chain: B1 chain with N25C
notes: Mdm35, Saccharomyces cerevisiae, full length (86 residues); The coexpression plasmid encodes GST-Mdm35; removal of GST is not described; source: E. coli SHuffle T7, coexpressed with His6-Ups1N24C, purified (Ni-NTA, Superdex 200)
B2: binds [7].

B3: Mdm35ΔC5 (Mdm35 lacking the C-terminal five residues) (domain or fragment, S. cerevisiae, UniProt O60200 1-81, looked up)
chain: MGNIMSASFAPECTDLKTKYDSCFNEWYSEKFLKGKSVENECSKQWYAYTTCVNAALVKQGIKPALDEAREEAPFENGGKL
notes: Mdm35, Saccharomyces cerevisiae; full length is 86 residues, this construct lacks the C-terminal five residues; The coexpression plasmid encodes GST-Mdm35ΔC5; the stated 31 kDa of the heterodimer implies that GST was no longer on the chain, but its removal from the complex is not described; For Mdm35 crystallised alone (4YTV) GST was cleaved with PreScission protease; Disulfides Cys13–Cys52 and …
B3: binds [8].
